Test results: paper PMC5823869

Molecular target: YAP2L/TAZ in cells
Assay: non-reducing SDS-PAGE with immunoblot; cell lysates (15 µg of transfected HEK293; 30 µg of H460 for endogenous TAZ) in SDS sample buffer without DTT, 3 min at 60 °C; blot with anti-FLAG, anti-HA or anti-TAZ; series with increasing DTT run beside

percent of the total protein that is dimer: 20 to 30%
Substance: YAP2L/TAZ in cells
